Results taken from patent publication US20080305188A9, “Composition and method for supporting cancer treatments” (priority 2003, published 2008).
Where two headings read alike, the source gives them in different places. Marks after values point to notes of the source that are not given here. One block for each molecule: values may come before it.

How the values were obtained:
[1] = in vivo, iv
white blood cells = conditions: taken orally; previously published animal experiments and clinical trials; cited from earlier work
[2] = Pharmacokinetics study of intravenous injection of matrine or oxymatrine with addition of geranium oil (HPLC peak areas); conditions: with addition of geranium oil versus compound alone
[3] = Body weight of mice given 5-Fu; type: in vivo
[4] = test system: BALB/c mice injected with 5-Fu; experiment: Blood cell counts in mice given 5-Fu (reduction of bone marrow suppression); type: in vivo
[5] = Day 10, 5-Fu 135 mg/kg IP single dose only
[6] = Day 14, 5-Fu 135 mg/kg IP single dose only
[7] = Day 10, 135 μg/mouse G-CSF and 5-Fu
[8] = Day 14, 135 μg/mouse G-CSF and 5-Fu

Molecule: O=C1CCC[C@@H]2[C@H]3CCCN4CCC[C@@H](CN12)[C@@H]34 [matrine]
absorption and metabolism of the compound (changes in HPLC peak areas over time) [2]: increase the absorption and metabolism

B1: G-CSF/5-Fu: granulocyte colony-stimulating factor, comparison treatment given with 5-Fu (protein, UniProt P09919 31-207, looked up)
Granulocyte …: TPLGPASSLPQSFLLKCLEQVRKIQGDGAALQEKLVSECATYKLCHPEELVLLGHSLGIPWAPLSSCPSQALQLAGCLSQLHSGLFLYQGLLQALEGISPELGPTLDTLQLDVADFATTIWQQMEELGMAPALQPTQGAMPAFASAFQRRAGGVLVASHLQSFLEVSYRVLRHLAQP
weight of mice ([3]; Day 0, G-CSF and 5-Fu, in g): 22.0 ± 1.84
weight of mice ([3]; Day 14, G-CSF and 5-Fu, in g): 24.0 ± 1.64
weight of mice ([3]; Day -2, G-CSF and 5-Fu, in g): 20.5 ± 1.76
GR (granulocytes) count [4, 7]: 0.71 ± 0.268** 10^3/μl
LY (lymphocytes) count [4, 7]: 5.01 ± 1.372* 10^3/μl
MO (monocytes) count [4, 7]: 0.38 ± 0.141* 10^3/μl
PLT (platelets) count [4, 7]: 2303 ± 491.7 10^3/μl
RBC (erythrocytes) count [4, 7]: 7.82 ± 0.424 10^6/μl
WBC (total leukocytes) count [4, 7]: 5.46±2.338 10^3/μl
bone marrow suppression effect (WBC) relative to that of 5-Fu only [4, 7]: 51%
suppression effect with respect to granulocytes relative to 5-Fu only [4, 7]: 54%
suppression effect with respect to lymphocytes relative to 5-Fu only [4, 7]: 18%
suppression effect with respect to monocytes relative to 5-Fu only [4, 7]: 7%
WBC (total leukocytes) count ([4]; Day 10, 135 μg/mouse G-CSF and 5-Fu, listed as C-GSF/5-Fu): 5.46 ± 2.338 10^3/μl
GR (granulocytes) count [4, 8]: 1.64 ± 0.405 10^3/μl
LY (lymphocytes) count [4, 8]: 6.12 ± 1.164 10^3/μl
MO (monocytes) count [4, 8]: 0.58 ± 0.266 10^3/μl
PLT (platelets) count [4, 8]: 2105 ± 378.1 10^3/μl
RBC (erythrocytes) count [4, 8]: 8.02 ± 0.340 10^6/μl
WBC (total leukocytes) count [4, 8]: 8.34 ± 1.454 10^3/μl
total leukocyte count and lymphocyte count (only these) versus 5-Fu only [4, 8]: continued to increase to a higher level than that of mice treated with 5-Fu only

Continued, in another order:

absorption and metabolism of the compound (changes in HPLC peak areas over time) [1]: increase the absorption and metabolism
Molecule: O=C1CCC[C@@H]2[C@H]3CCC[N+]4([O-])CCC[C@@H](CN12)[C@@H]34 (stereo partly shown) [oxymatrine]
effect on increasing white blood cells (white blood cells): does not show any effect on increasing white blood cells

GR (granulocytes) count [4, 5]: 0.25 ± 0.050 10^3/μl
LY (lymphocytes) count [4, 5]: 3.66 ± 0.648 10^3/μl
MO (monocytes) count [4, 5]: 0.25 ± 0.046 10^3/μl
PLT (platelets) count [4, 5]: 2828 ± 632.4 10^3/μl
RBC (erythrocytes) count [4, 5]: 7.86 ± 0.171 10^6/μl
WBC (total leukocytes) count [4, 5]: 4.17±0.677 10^3/μl
GR (granulocytes) count [4, 6]: 1.65 ± 0.756 10^3/μl
LY (lymphocytes) count [4, 6]: 5.75 ± 0.880 10^3/μl
MO (monocytes) count [4, 6]: 0.59 ± 0.316 10^3/μl
PLT (platelets) count [4, 6]: 2219 ± 750.2 10^3/μl
RBC (erythrocytes) count [4, 6]: 8.09 ± 0.331 10^6/μl
WBC (total leukocytes) count [4, 6]: 7.98 ± 1.575 10^3/μl
Molecule: O=c1[nH]cc(F)c(=O)[nH]1 [5-Fu, 5-Fluorouracil, reference compound]
weight of mice ([3]; Day 0, 5-Fu only group, in g): 22.0 ± 0.93
weight of mice ([3]; Day 10, 5-Fu only group): 22.3 ± 1.53 g
weight of mice ([3]; Day 14, 5-Fu only group, in g): 23.5 ± 0.78
weight of mice ([3]; Day -2, 5-Fu only group, in g): 20.7 ± 0.90
